Assay results reported in US20250154256A1 (AUGUSTA UNIVERSITY RESEARCH INSTITUTE, published 2025).
Where two headings read alike, the source gives them in different places.

T1: mouse PD-1 (mouse, UniProt Q02242 25-167, limits assumed)
T1 construct: Analyte in solution in the Biacore runs
T1 sequence: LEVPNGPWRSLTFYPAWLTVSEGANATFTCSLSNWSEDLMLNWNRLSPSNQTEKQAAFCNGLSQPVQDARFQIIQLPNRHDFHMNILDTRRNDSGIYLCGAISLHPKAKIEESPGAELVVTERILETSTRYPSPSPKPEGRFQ

B1: monoclonal antibody 5C2 (antibody, IgG1, V domains shown)
VH: QVQLQQPGAELVKPGASVKVSCKASGYTFTSYWMHWVKQRPGQGLEWIGRIHPSDSDTNYNQKFKGKATLTVDKSSSTAYMQLSSLTSEDSAVYYCAPYGNYASGFAYWGQGTLVTVSA
VL: DIVMTQSHKFMSTSVGDRVSITCKASQDVSTAVAWYQQKPGQSPKLLIYWASTRHTGVPDRFTGSGSGTDYTLTISSVQAEDLALYYCQQHYSTPWTFGGGTKLEIKR
notes: the two clones are reported with different SPR values; also called 5C2 anti-PD-1 antibody
B2: monoclonal antibody 4C12 (antibody, mouse IgG1, kappa, V domains shown)
VH: B1 VH
VL: B1 VL
notes: also called 4C12 anti-PD-1 antibody
B3: monoclonal antibody 4G9 (antibody, mouse IgG2b, kappa, V domains shown)
VH: QIQLVQSGPELKKPGETVKISCKASGYTFTTYGMTWVKQAPGKGLKWMGWINTYSGVPTYADDFKGRFAFSLETSASTAYLQINNLKNEDTATYFCARGGRGFAYWGQGTLVTVSA
VL: DILLTQSPAILSVSPGERVSFSCRASQSIGTSIHWYQQRTNGSPRLLIKYASESISGIPSRFSGSGSGTDFTLSINSVESEDIADYYCQQSNSWPYTFGGGTKLEIKR
notes: also called 4G9 anti-PD-1 antibody

How the values were obtained:
[1] = target: T2, human PD-1-Fc (human, UniProt Q15116 25-170, limits assumed); experiment: ELISA, binding to human PD-1-Fc
T2 construct: ELISA antigen

[2] = target: T1, mouse PD-1; experiment: SPR (Biacore), antibody as ligand, PD-1 as analyte
[3] = target: T3, human PD-1 (human, UniProt Q15116 25-167, limits assumed); experiment: SPR (Biacore), antibody as ligand, PD-1 as analyte
T3 construct: Analyte in solution in the Biacore runs; also called programmed cell death protein 1

[4] = target: T3, human PD-1; experiment: SPR (Biacore), antibody as ligand, PD-1 as analyte; remark: listed apart in the source
[5] = target: T3, human PD-1; experiment: SPR (Biacore), antibody as ligand, PD-1 as analyte; remark: listed apart in the source
[6] = target: T1, mouse PD-1; experiment: SPR (Biacore), antibody as ligand, PD-1 as analyte; remark: listed apart in the source

T3 sequence (Q15116 25-167 limits assumed): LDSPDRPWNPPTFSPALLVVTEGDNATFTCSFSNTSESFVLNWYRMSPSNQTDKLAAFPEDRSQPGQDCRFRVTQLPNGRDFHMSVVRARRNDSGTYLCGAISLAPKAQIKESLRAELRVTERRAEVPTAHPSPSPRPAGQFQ
T2 sequence (Q15116 25-170 limits assumed): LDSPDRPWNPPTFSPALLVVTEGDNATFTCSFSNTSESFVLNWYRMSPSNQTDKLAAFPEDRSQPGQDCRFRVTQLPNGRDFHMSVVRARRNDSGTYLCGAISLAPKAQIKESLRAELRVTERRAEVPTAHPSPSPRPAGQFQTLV

Row | Binder | EC50 (read off the curve) [1] [µg/mL] | Ka [2] [M⁻¹] | Kd [2] [nM] | Ka [3] [M⁻¹] | Kd [3] [nM] | Ka [4] [M⁻¹] | Kd [4] [nM] | Ka [5] [M⁻¹] | Kd [5] [nM] | Ka [6] [M⁻¹] | Kd [6] [nM] | koff [6] [s⁻¹] | kon [6] [M⁻¹ s⁻¹]
1 | B1 | ~1 | 1.18e+06 | 850 | 202000 | 4950 | – | – | – | – | – | – | – | –
2 | B2 | – | – | – | – | – | 3.14e+06 | 319 | – | – | – | – | – | –
3 | B3 | ~0.5 | – | – | – | – | – | – | 952000 | 1050 | 194000 | 5150 | 0.0103 | 2000
